This note sets out measurements from article PMC5286483, “Effect of R119G Mutation on Human P5CR1 Dynamic Property and Enzymatic Activity” (BioMed Research International, 2017).

By stoichiometry N is commonly meant the number of molecules, sites or subunits per partner or assembly.

Data set [1] concerns the molecule itself. In words: SEC; Superdex-75 column (10/300 mm), 20 mM Caps, pH 9.4, 0.5 M NaCl, 0.5 mL/min; refolded R119G mutant.
Data set [2] concerns the molecule itself. The experiment in a line: SEC; R119H mutant (Fig. S4); column and buffer not stated. On the technique in general: Size exclusion chromatography separates by hydrodynamic size, large species first.

Positions count from the first letter of the chain named. Names may count otherwise.

B1: Human P5CR1 R119G mutant (enzyme, UniProt P32322 1-319, looked up)
chain: MSVGFIGAGQLAFALAKGFTAAGVLAAHKIMASSPDMDLATVSALRKMGVKLTPHNKETVQHSDVLFLAVKPHIIPFILDEIGADIEDRHIVVSCAAGVTISSIEKKLSAFRPAPRVIGCMTNTPVVVREGATVYATGTHAQVEDGRLMEQLLSSVGFCTEVEEDLIDAVTGLSGSGPAYAFTALDALADGGVKMGLPRRLAVRLGAQALLGAAKMLLHSEQHPGQLKDNVSSPGGATIHALHVLESGGFRSLLINAVEASCIRTRELQSMADQEQVSPAAIKKTILDKVKLDSPAGTALSPSGHTKLLPRSLAPAGKD
notes: Pyrroline-5-carboxylate reductase 1 (P5CR1), human, encoded by PYCR1, with the ARCL-associated mutation R119G; monomer molecular weight printed as 33.3 kDa; Made by PCR mutagenesis of WT-pET28a-P5CR1; also called R119G P5CR1; pET28a-P5CR1-R119G; source: E. coli BL21 (DE3), inclusion bodies, denatured in 6 M urea, purified (Ni2+-chelating column), renatured, SEC
In the case of B1, the “stoichiometry N” value in data set [1] worked out at 2.

B2: Human P5CR1 R119H mutant (enzyme, UniProt P32322 1-319, looked up)
chain: B1 chain with G119H
notes: Pyrroline-5-carboxylate reductase 1 (P5CR1), human, encoded by PYCR1, with the mutation R119H; source: expressed mostly as inclusion bodies, purified with a Ni2+-chelating column; plasmid constructed 'by the previous method'
As for B2, the “stoichiometry N” value in data set [2] was found to be 2.
